Experimental data from the Human Domainome abundance scans (Beltran et al. 2025).
± gives the uncertainty stated by the source.

B1: Protein maelstrom homolog, residues 3 to 71; numbered along this chain, Q96JY0 (parent)
chain: NRKASRNAYYFFVQEKIPELRRRGLPVARVADAIPYCSSDWALLREEEKEKYAEMAREWRAAQGKDPGP

Variants of: B1
Assay: abundance fitness (aPCA) (normalised: wild type 0, dead -1); higher = more abundant; growth selection in yeast, the domain comes from the species named
Details: Homo sapiens

Variant	abundance fitness
NRKASRNAYYFFVQEKITELRRRGLPVARVADAIPYCSSDWALLREEEKEKYAEMAREWRAAQGKDPGP	-0.411 ± 0.074
NRKASRNAYYFFVQEKIMELRRRGLPVARVADAIPYCSSDWALLREEEKEKYAEMAREWRAAQGKDPGP	-0.263 ± 0.097
NRKASRNAYYFFVQEKIYELRRRGLPVARVADAIPYCSSDWALLREEEKEKYAEMAREWRAAQGKDPGP	-0.673 ± 0.25
NRKASRNAYYFFVQEKIAELRRRGLPVARVADAIPYCSSDWALLREEEKEKYAEMAREWRAAQGKDPGP	-0.376 ± 0.067
NRKASRNAYYFFVQEKISELRRRGLPVARVADAIPYCSSDWALLREEEKEKYAEMAREWRAAQGKDPGP	-0.4 ± 0.071
NRKASRNAYYFFVQEKIQELRRRGLPVARVADAIPYCSSDWALLREEEKEKYAEMAREWRAAQGKDPGP	-0.338 ± 0.094
NRKASRNAYYFFVQEKIGELRRRGLPVARVADAIPYCSSDWALLREEEKEKYAEMAREWRAAQGKDPGP	-0.31 ± 0.067
NRKASRNAYYFFVQEKIVELRRRGLPVARVADAIPYCSSDWALLREEEKEKYAEMAREWRAAQGKDPGP	-0.268 ± 0.057
NRKASRNAYYFFVQEKIEELRRRGLPVARVADAIPYCSSDWALLREEEKEKYAEMAREWRAAQGKDPGP	-0.306 ± 0.1
NRKASRNAYYFFVQEKICELRRRGLPVARVADAIPYCSSDWALLREEEKEKYAEMAREWRAAQGKDPGP	-0.358 ± 0.1
NRKASRNAYYFFVQEKILELRRRGLPVARVADAIPYCSSDWALLREEEKEKYAEMAREWRAAQGKDPGP	-0.606 ± 0.1
NRKASRNAYYFFVQEKIRELRRRGLPVARVADAIPYCSSDWALLREEEKEKYAEMAREWRAAQGKDPGP	-0.526 ± 0.057
NRKASRNAYYFFVQEKIDELRRRGLPVARVADAIPYCSSDWALLREEEKEKYAEMAREWRAAQGKDPGP	-0.313 ± 0.099
NRKASRNAYYFFVQEKIHELRRRGLPVARVADAIPYCSSDWALLREEEKEKYAEMAREWRAAQGKDPGP	-0.019 ± 0.26
NRKASRNAYYFFVQEKIIELRRRGLPVARVADAIPYCSSDWALLREEEKEKYAEMAREWRAAQGKDPGP	-0.452 ± 0.2
NRKASRNAYYFFVQEKIKELRRRGLPVARVADAIPYCSSDWALLREEEKEKYAEMAREWRAAQGKDPGP	-0.498 ± 0.11
NRKASRNAYYFFVQEKIFELRRRGLPVARVADAIPYCSSDWALLREEEKEKYAEMAREWRAAQGKDPGP	-0.286 ± 0.16
NRKASRNAYYFFVQEKINELRRRGLPVARVADAIPYCSSDWALLREEEKEKYAEMAREWRAAQGKDPGP	-0.532 ± 0.15
NRKASRNAYYFFVQEKIPELERRGLPVARVADAIPYCSSDWALLREEEKEKYAEMAREWRAAQGKDPGP	-0.496 ± 0.29
NRKASRNAYYFFVQEKIPELGRRGLPVARVADAIPYCSSDWALLREEEKEKYAEMAREWRAAQGKDPGP	0.058 ± 0.47

Variant	abundance fitness
NRKASRNAYYFFVQEKIPELLRRGLPVARVADAIPYCSSDWALLREEEKEKYAEMAREWRAAQGKDPGP	-0.024 ± 0.24
NRKASRNAYYFFVQEKIPEKRRRGLPVARVADAIPYCSSDWALLREEEKEKYAEMAREWRAAQGKDPGP	-0.88 ± 0.16
NRKASRNAYYFFVQEKIPEDRRRGLPVARVADAIPYCSSDWALLREEEKEKYAEMAREWRAAQGKDPGP	-0.772 ± 0.16
NRKASRNAYYFFVQEKIPENRRRGLPVARVADAIPYCSSDWALLREEEKEKYAEMAREWRAAQGKDPGP	-0.642 ± 0.22
NRKASRNAYYFFVQEKIPEMRRRGLPVARVADAIPYCSSDWALLREEEKEKYAEMAREWRAAQGKDPGP	-0.334 ± 0.15
NRKASRNAYYFFVQEKIPEPRRRGLPVARVADAIPYCSSDWALLREEEKEKYAEMAREWRAAQGKDPGP	-0.989 ± 0.14
NRKASRNAYYFFVQEKIPECRRRGLPVARVADAIPYCSSDWALLREEEKEKYAEMAREWRAAQGKDPGP	-0.611 ± 0.17
NRKASRNAYYFFVQEKIPEGRRRGLPVARVADAIPYCSSDWALLREEEKEKYAEMAREWRAAQGKDPGP	-0.739 ± 0.068
NRKASRNAYYFFVQEKIPESRRRGLPVARVADAIPYCSSDWALLREEEKEKYAEMAREWRAAQGKDPGP	-0.844 ± 0.11
NRKASRNAYYFFVQEKIPEQRRRGLPVARVADAIPYCSSDWALLREEEKEKYAEMAREWRAAQGKDPGP	-0.797 ± 0.12
NRKASRNAYYFFVQEKIPEVRRRGLPVARVADAIPYCSSDWALLREEEKEKYAEMAREWRAAQGKDPGP	-0.677 ± 0.08
NRKASRNAYYFFVQEKIPETRRRGLPVARVADAIPYCSSDWALLREEEKEKYAEMAREWRAAQGKDPGP	-0.62 ± 0.11
NRKASRNAYYFFVQEKIPERRRRGLPVARVADAIPYCSSDWALLREEEKEKYAEMAREWRAAQGKDPGP	-0.959 ± 0.081
NRKASRNAYYFFVQEKIPEARRRGLPVARVADAIPYCSSDWALLREEEKEKYAEMAREWRAAQGKDPGP	-1.1 ± 0.12
NRKASRNAYYFFVQEKIPEWRRRGLPVARVADAIPYCSSDWALLREEEKEKYAEMAREWRAAQGKDPGP	-0.673 ± 0.12
NRKASRNAYYFFVQEKIPEHRRRGLPVARVADAIPYCSSDWALLREEEKEKYAEMAREWRAAQGKDPGP	-0.953 ± 0.26
NRKASRNAYYFFVQEKIPEIRRRGLPVARVADAIPYCSSDWALLREEEKEKYAEMAREWRAAQGKDPGP	-0.636 ± 0.21
NRKASRNAYYFFVQEKIPELRLRGLPVARVADAIPYCSSDWALLREEEKEKYAEMAREWRAAQGKDPGP	-0.11 ± 0.065
NRKASRNAYYFFVQEKIPELRTRGLPVARVADAIPYCSSDWALLREEEKEKYAEMAREWRAAQGKDPGP	-0.242 ± 0.087
